Source: patent US20260224624A1

Target: recombinant human TGFβ1 (rhTGFβ) (human) (UniProt P01137)
Assay: cell-based or functional assay

Sequence of UniProt P01137 (P01137 279-390 limits assumed): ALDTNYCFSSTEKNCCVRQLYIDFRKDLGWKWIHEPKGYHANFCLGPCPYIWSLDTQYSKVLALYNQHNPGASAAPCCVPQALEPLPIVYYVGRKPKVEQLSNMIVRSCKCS

TGFβ-switch receptor (SwR): extracellular domains of TGFβRI and TGFβRII fused to the transmembrane and intracellular domains of the IL-2/IL-15 receptor β and γ chains
expansion of JK59 SwR-STEAP1 CAR T cells cultured 21 days with rhTGFβ: 15 fold | expansion of JK69 SwR-STEAP1 CAR T cells cultured 21 days with rhTGFβ: 33 fold | phosphorylation level of STAT5 (pY694) in CD3+ JK59 CAR T cells treated with rhTGFβ at 10 ng/ml for 15 min, flow cytometry: 60%
